Reference: PMC8443706, “Functionally diverse heteromeric traps for ligands of the transforming growth factor-β superfamily” (Scientific Reports, 2021)

B1: BMP6 (ligand, human, UniProt P22004 375-513, looked up)
chain: SASSRRRQQSRNRSTQSQDVARVSSASDYNSSELKTACRKHELYVSFQDLGWQDWIIAPKGYAANYCDGECSFPLNAHMNATNHAIVQTLVHLMNPEYVPKPCCAPTKLNAISVLYFDDNSNVILKKYRNMVVRACGCH
notes: source: bought: R&D Systems

How the values were obtained:
Conditions in all cases: both partners purified
[1] = target: T1, IIB-Fc:ALK4-Fc heterodimer (human ActRIIB ECD-Fc paired with human ALK4 ECD-Fc) (human, UniProt Q13705-1 19-134; P36896-1 24-126); assay: SPR; Biacore 8K, 37 °C; Fc-fusion receptor dimers captured by anti-human Fc antibody on a CM5 chip (100-150 RU); ligands injected in two-fold dilution series (300 s association, 600 s dissociation); HBS-EP+ supplemented with 350 mM NaCl and 0.5 mg/mL BSA; 1:1 Langmuir model with a term for mass transport
T1 construct: activin receptor type IIB (ActRIIB) extracellular domain, human, aa 19-134 of NP_001097.2; copies: 1 + 1

[2] = target: T2, IIB-Fc:ALK7-Fc heterodimer (human ActRIIB ECD-Fc paired with human ALK7 ECD-Fc) (human, UniProt Q13705-1 19-134; Q8NER5-1 25-113); assay: as above
T2 construct: activin receptor type IIB (ActRIIB) extracellular domain, human, aa 19-134 of NP_001097.2; activin receptor-like kinase 7 (ALK7) extracellular domain, human, aa 25-113 of NP_660302.2; copies: 1 + 1

[3] = target: T3, IIB-Fc:ALK3-Fc heterodimer (human ActRIIB ECD-Fc paired with human ALK3 ECD-Fc) (human, UniProt Q13705-1 19-134; P36894 24-152); assay: as above
T3 construct: activin receptor type IIB (ActRIIB) extracellular domain, human, aa 19-134 of NP_001097.2; copies: 1 + 1

[4] = target: T2, IIB-Fc:ALK7-Fc heterodimer (human …); assay: SPR; same experiment as a1 (Biacore 8K, 37 °C, receptor dimers captured by anti-human Fc, HBS-EP+ with 350 mM NaCl added and 0.5 mg/mL BSA) but fitted with a bivalent analyte model (bold cells of Table 1); the first binding step is the one considered
[5] = target: T3, IIB-Fc:ALK3-Fc heterodimer (human …); assay: as above
[6] = target: T4, IIB-Fc:IIB-Fc homodimer (human ActRIIB ECD fused to human IgG1 Fc) (human, UniProt Q13705-1 19-134); assay: SPR; Biacore 8K, 37 °C; Fc-fusion receptor dimers captured by anti-human Fc antibody on a CM5 chip (100-150 RU); ligands injected in two-fold dilution series (300 s association, 600 s dissociation); HBS-EP+ supplemented with 350 mM NaCl and 0.5 mg/mL BSA; 1:1 Langmuir model with a term for mass transport
T4 construct: activin receptor type IIB (ActRIIB) extracellular domain, human, aa 19-134 of NP_001097.2; Chains linked by disulfide bonds between the Fc domains; a form with murine IgG2a Fc was used only in mice; also called ActRIIB-Fc homodimer; ActRIIB-Fc; not shown: Fc (human IgG1), C-terminal, kept

[7] = target: T1, IIB-Fc:ALK4-Fc heterodimer (human …); assay: SPR; same experiment as a1 (Biacore 8K, 37 °C, receptor dimers captured by anti-human Fc, HBS-EP+ with 350 mM NaCl added and 0.5 mg/mL BSA) but fitted with a bivalent analyte model (bold cells of Table 1); the first binding step is the one considered
[8] = target: B1; assay: SPR; Biacore 8K, 37 °C; Fc-fusion receptor dimers captured by anti-human Fc antibody on a CM5 chip (100-150 RU); ligands injected in two-fold dilution series (300 s association, 600 s dissociation); HBS-EP+ supplemented with 350 mM NaCl and 0.5 mg/mL BSA; 1:1 Langmuir model with a term for mass transport

T2 sequence (Q13705 19-134, chain 1 of 2): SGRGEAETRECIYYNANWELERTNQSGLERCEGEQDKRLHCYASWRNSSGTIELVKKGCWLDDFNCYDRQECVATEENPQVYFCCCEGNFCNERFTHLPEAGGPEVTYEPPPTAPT
T2 sequence (Q8NER5 25-113, chain 2 of 2): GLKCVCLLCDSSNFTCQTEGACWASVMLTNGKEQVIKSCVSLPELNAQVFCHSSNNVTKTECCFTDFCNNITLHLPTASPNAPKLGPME
T1 sequence (Q13705 19-134, chain 1 of 2): as the sequence (Q13705 19-134, chain 1 of 2) above
T1 sequence (P36896 24-126, chain 2 of 2): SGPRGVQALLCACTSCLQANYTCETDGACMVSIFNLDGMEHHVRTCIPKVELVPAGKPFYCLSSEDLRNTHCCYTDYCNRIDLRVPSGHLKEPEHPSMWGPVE
T4 sequence (Q13705 19-134): as the sequence (Q13705 19-134, chain 1 of 2) above

Row | Kd [1] [pM] | koff [1] [s⁻¹] | kon [1] [M⁻¹ s⁻¹] | Kd [2] [pM] | koff [2] [s⁻¹] | kon [2] [M⁻¹ s⁻¹] | Kd [3] [pM] | koff [3] [s⁻¹] | kon [3] [M⁻¹ s⁻¹] | Kd [4] [pM] | koff [4] [s⁻¹] | kon [4] [M⁻¹ s⁻¹] | Kd [5] [pM] | koff [5] [s⁻¹] | kon [5] [M⁻¹ s⁻¹] | Kd [6] [pM] | koff [6] [s⁻¹] | kon [6] [M⁻¹ s⁻¹] | Kd [7] [pM] | koff [7] [s⁻¹] | Binder | further results
1 | 758 | 0.00573 | 7.6e+06 | 715 | 0.00424 | 5.9e+06 | 46 | 0.000214 | 4.6e+06 | – | – | – | – | – | – | – | – | – | – | – | B1 | –
2 | 18.4 | 0.000139 | 7.4e+06 | – | – | – | – | – | – | 410 | 0.00815 | 2e+07 | 164 | 0.00733 | 4.47e+07 | 10.9 | 8.45e-05 | 7.8e+06 | – | – | activin A (ligand, human, UniProt P08476 311-426, looked up, source: generated in house) GLECDGKVNICCKKQFFVSFKDIGWNDWIIAPSGYHANYCEGECPSHIAGTSGSSLSFHSTVINHYRMRGHSPFANLKSCCVPTKLRPMSMLYYDDGQNIIKKDIQNMIVEECGCS | –
3 | – | – | – | – | – | – | – | – | – | > 10000 | > 0.01 | 1.1e+06 | > 10000 | > 0.01 | 900000 | 640 | 0.00188 | 2.9e+06 | > 10000 | > 0.01 | GDF3 (ligand, human, UniProt Q9NR23 251-364, looked up, source: bought: R&D Systems) AAIPVPKLSCKNLCHRHQLFINFRDLGWHKWIIAPKGFMANYCHGECPFSLTISLNSSNYAFMQALMHAVDPEIPQAVCIPTKLSPISMLYQDNNDNVILRHYEDMVVDECGCG | kon [7]: 1.1e+06 M⁻¹ s⁻¹
4 | – | – | – | – | – | – | – | – | – | – | – | – | – | – | – | – | – | – | – | – | ALK3-Fc:ALK3-Fc homodimer (human ALK3 ECD fused to human IgG1 Fc) (Fc fusion, UniProt P36894 24-152, looked up, not shown: Fc (human IgG1), C-terminal, kept) QNLDSMLHGTGMKSDSDQKKSENGVTLAPEDTLPFLKCYCSGHCPDDAINNTCITNGHCFAIIEEDDQGETTLASGCMKYEGSDFQCKDSPKAQLRRTIECCRTNLCNQYLQPTLPPVVIGPFFDGSIR | Kd [8]: 9030 pM; koff [8]: 0.00569 s⁻¹; kon [8]: 600000 M⁻¹ s⁻¹
5 | 15.3 | 8.07e-05 | 5.3e+06 | 15.3 | 0.000114 | 7.4e+06 | 69.6 | 0.000335 | 4.8e+06 | – | – | – | – | – | – | 3.8 | 2.19e-05 | 5.7e+06 | – | – | activin B (ligand, human, UniProt P09529 293-407, looked up, source: generated in house) GLECDGRTNLCCRQQFFIDFRLIGWNDWIIAPTGYYGNYCEGSCPAYLAGVPGSASSFHTAVVNQYRMRGLNPGTVNSCCIPTKLSTMSMLYFDDEYNIVKRDVPNMIVEECGCA | –
6 | 67 | 0.0028 | 4.18e+07 | 70.6 | 0.00314 | 4.45e+07 | 33.5 | 0.000719 | 2.15e+07 | – | – | – | – | – | – | 6.5 | 0.000121 | 1.86e+07 | – | – | BMP10 (ligand, human, UniProt O95393 317-424, looked up, source: bought: R&D Systems) NAKGNYCKRTPLYIDFKEIGWDSWIIAPPGYEAYECRGVCNYPLAEHLTPTKHAIIQALVHLKNSQKASKACCVPTKLEPISILYLDKGVVTYKFKYEGMAVSECGCR | –
7 | – | – | – | – | – | – | – | – | – | 2300 | > 0.01 | 7.1e+06 | 1760 | > 0.01 | 9.7e+06 | 93.3 | 0.0011 | 1.24e+07 | 1360 | > 0.01 | BMP9 (ligand, human, UniProt Q9UK05 320-429, looked up, source: generated in house) SAGAGSHCQKTSLRVNFEDIGWDSWIIAPKEYEAYECKGGCFFPLADDVTPTKHAIVQTLVHLKFPTKVGKACCVPTKLSPISVLYKDDMGVPTLKYHYEGMSVAECGCR | kon [7]: 8.9e+06 M⁻¹ s⁻¹
8 | – | – | – | – | – | – | 4.1 | – | – | – | – | – | – | – | – | 5430 | – | – | – | – | BMP4 (ligand, human, UniProt P12644 293-408, looked up, source: bought: R&D Systems) SPKHHSQRARKKNKNCRRHSLYVDFSDVGWNDWIVAPPGYQAFYCHGDCPFPLADHLNSTNHAIVQTLVNSVNSSIPKACCVPTELSAISMLYLDEYDKVVLKNYQEMVVEGCGCR | –
9 | 10.8 | 0.000164 | 1.52e+07 | 47.4 | 0.000642 | 1.35e+07 | 48.5 | 0.000641 | 1.32e+07 | – | – | – | – | – | – | 3.9 | 7.56e-05 | 1.94e+07 | – | – | GDF11 (ligand, human, UniProt O95390 299-407, looked up, source: generated in house) NLGLDCDEHSSESRCCRYPLTVDFEAFGWDWIIAPKRYKANYCSGQCEYMFMQKYPHTHLVQQANPRGSAGPCCTPTKMSPINMLYFNDKQQIIYGKIPGMVVDRCGCS | –
10 | – | – | – | – | – | – | 165 | 0.00197 | 1.19e+07 | > 10000 | > 0.01 | 700000 | – | – | – | – | – | – | > 10000 | > 0.01 | BMP7 (ligand, human, UniProt P18075 293-431, looked up, source: bought: R&D Systems) STGSKQRSQNRSKTPKNQEALRMANVAENSSSDQRQACKKHELYVSFRDLGWQDWIIAPEGYAAYYCEGECAFPLNSYMNATNHAIVQTLVHFINPETVPKPCCAPTQLNAISVLYFDDSSNVILKKYRNMVVRACGCH | kon [7]: 800000 M⁻¹ s⁻¹
